Data set [1] has as its target T1, streptavidin (UniProt P22629 P22629:25-183). Briefly: bound streptavidin spot on slide also carrying tobramycin spot, 37 C, PBS washes. As to conditions: chain copies: 4 inferred; label: Cy3-UTP incorporated. The method, then:
(§1) ˜10 μl spots of 5 mM tobramycin or 16.6 μM streptavadin in PBS were pipetted onto NHS-activated slides (Schott Nexterion Slide H). The slides were incubated at 37° C. in a humidified petri dish for ˜1 hour. The slides were washed ˜3× with ˜5 ml PBST (0.5% Tween) and ˜1× with H₂O. The remainder of the NHS-activated surface was blocked with ethanolamine. ˜5 ml of 50 mM ethanolamine-HCl was used to cover the slides and they were incubated at room temperature for ˜1 hr. The slides were washed ˜3× with ˜5 ml PBST (0.5% Tween), 1× with H₂O and dried in air.
(§2) Following incubation at 37° C. for ˜1-4 hrs, the slides were separated and the in vitro transcription mix was recovered from the slide surface using a pipette. The DNA template slide was washed ˜3× with ˜5 ml PBS, ˜1× with ˜5 ml H₂O and air dried. The RNA-binding slide was washed ˜3× with ˜5 ml PBS, ˜1×˜5 ml H₂O and air dried. Cy-labelled RNA was visualized at 532 nm for Cy3 or 639 nm for Cy5. For unlabelled RNA, the RNA-binding slide was stained by covering the slide with ˜5 ml SYBR gold (Invitrogen, Paisley, UK; 5 μl of SYBR gold in ˜25 ml PBS) for 10 minutes and visualised with a UV transilluminator.

The target of data set [2] is T1, streptavidin. As to the kind of experiment: no-aptamer control, sandwich print slide capture, 37 C, PBS washes. Conditions: chain copies: 4 inferred; label: Cy3-UTP incorporated. As to the method: as §1, §2
(§3) Only the MicASAApt, incorporating the stretpavadin aptamer, bound to the streptavidin RNA-binding slide. […]

In data set [3] the target is T1, streptavidin. Briefly: sandwich print slide capture, T7 transcription mix, 37 C, PBS washes. Conditions: chain copies: 4 inferred; label: Cy3-UTP incorporated. The method, then: as §1, §2, §3
Data set [4] concerns the target T1, streptavidin. Briefly: sandwich print slide capture, 37 C, PBS washes. Conditions: chain copies: 4 inferred.

T1 sequence (P22629 25-183, one chain of several): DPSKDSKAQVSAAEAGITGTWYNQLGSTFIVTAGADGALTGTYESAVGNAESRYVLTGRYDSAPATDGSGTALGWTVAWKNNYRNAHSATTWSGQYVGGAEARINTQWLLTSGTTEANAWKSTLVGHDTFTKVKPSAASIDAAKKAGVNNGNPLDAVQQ

B1: M-SSAApt RNA (ssRNA)
RNA: GAAAGACGCGCAUUUGUUAUCAUCAUCCCUGGGAAAGCGAGGCUUUCCCUGGCCACUCACGAGUGGCCUUUUACACACACACACACACACACGCAUGCAUACCGACCAGAAUCAUGCAAGUGCGUAAGAUAGUCGCGGGCCGGGAUGCAUGC
Regarding B1, the binding result with streptavidin [1] is listed as “binds”.

B2: MicA RNA without aptamer (ssRNA)
RNA: GGGGAAAGACGCGCAUUUGUUAUCAUCAUCCCUGAAUUCAGAGAUGAAAUUUUGGCCACUCACGAGUGGCCUUUU
With B2, the binding result in the data set with streptavidin [2] is reported as “no binding”.

B3: MicASAApt RNA (ssRNA)
RNA: GGGGAAAGACGCGCAUUUGUUAUCAUCAUCCCUGAAUUCAGAGAUGAAAUUUUGGCCACUCACGAGUGGCCUUUUACACACACACACACACACACGCAUGCAUACCGACCAGAAUCAUGCAAGUGCGUAAGAUAGUCGCGGGCCGGGAUGCAUGC
Regarding B3, the binding result with streptavidin [3] is on record as “binds”.

B4: U1SAApt RNA (ssRNA)
RNA: GGGUAUCCAUUGCACUCCGGAUGCCUUUUUUUUUUUUUUUUUUUUUGUGUGACCGACCAGAAUCAUGCAAGUGCGUAAGAUAGUCGCGGGCCGGGCACACA
For the molecule B4, the binding result in the data set with streptavidin [4] (label: Cy3-UTP incorporated) is reported as “binds”.

B5: Qrr1SAApt RNA (ssRNA)
RNA: GGGUGACCCGCAAGGGUCACCUAGCCAACUGACGUUGUUAGUGAAUAAUCAAUGUUCACAAAUAACAGCCAAUAGACUCAUUCUAUUGGCUAUUUUUUUUUUUUUUUUUUUUUUUUUUUUGUGUGACCGACCAGAAUCAUGCAAGUGCGUAAGAUAGUCGCGGGCCGGGCACACA
With B5, the binding result with streptavidin [4] (label: Cy5-UTP incorporated) is recorded as “binds”.

(Values after patent US20140087972, “METHOD OF IMMOBILISING RNA ONTO A SURFACE” (UNIVERSITY OF PORTSMOUTH, published 2014).)
